Results on three molecules are retold here after paper PMC3424567.

The target of one data set is T1, R.DpnI R231A (UniProt P0A460 1-254, R231A).
T1 sequence: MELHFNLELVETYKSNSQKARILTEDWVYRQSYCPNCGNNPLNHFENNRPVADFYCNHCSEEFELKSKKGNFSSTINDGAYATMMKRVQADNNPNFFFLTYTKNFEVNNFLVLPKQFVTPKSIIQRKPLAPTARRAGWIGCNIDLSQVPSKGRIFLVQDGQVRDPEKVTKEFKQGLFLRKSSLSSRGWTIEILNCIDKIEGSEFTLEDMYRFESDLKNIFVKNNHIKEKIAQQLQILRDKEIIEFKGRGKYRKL
As to the kind of experiment: filter binding.

The target of a further data set is T2, R.DpnI wH domain (UniProt P0A460 181-254).
T2 sequence: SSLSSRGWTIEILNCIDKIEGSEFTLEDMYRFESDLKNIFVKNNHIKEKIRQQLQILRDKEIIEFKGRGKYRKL
In words: filter binding.

B1: hmDNA (dsDNA)
DNA 1: ATATGGGATCGTCAGTCAGCG
DNA 2: CGCTGACTGACGATCCCATAT
modifications: m6A in GATC on one strand only (which strand not recoverable from text)
As to B1, in the data set with R.DpnI R231A, the binding result is listed as “no binding”.

B2: mDNA (dsDNA)
DNA 1: ATATGGGATCGTCAGTCAGCG
DNA 2: CGCTGACTGACGATCCCATAT
modifications: m6A at position 8 of strand 1 and position 13 of strand 2 (5'-3')
In turn, B2 came in with a binding signal with R.DpnI wH domain of 2e+06 counts.

B3: nmDNA (dsDNA)
DNA 1: ATATGGGATCGTCAGTCAGCG
DNA 2: CGCTGACTGACGATCCCATAT
In the case of B3, in the data set with R.DpnI R231A, the binding result is reported as “no binding”.
